The record followed here is patent US20220411523A1.

Assay [1] concerns the target Human 4-1BB + Mouse 4-1BB domain1,2A,2B(aa24-86) (human; mouse). In words: FACS, transiently transfected Expi293 cells (cell A). Background: In flow cytometry, cells or beads pass a laser one at a time.
Assay [2] has as its target Human 4-1BB + Mouse 4-1BB domain1,4B,NF(aa24-46,aa139-186) (human; mouse). In words: FACS, transiently transfected Expi293 cells (cell F).

Chain of Human 4-1BB + Mouse 4-1BB domain1,2A,2B(aa24-86) (human; mouse) (chain, as listed by the source): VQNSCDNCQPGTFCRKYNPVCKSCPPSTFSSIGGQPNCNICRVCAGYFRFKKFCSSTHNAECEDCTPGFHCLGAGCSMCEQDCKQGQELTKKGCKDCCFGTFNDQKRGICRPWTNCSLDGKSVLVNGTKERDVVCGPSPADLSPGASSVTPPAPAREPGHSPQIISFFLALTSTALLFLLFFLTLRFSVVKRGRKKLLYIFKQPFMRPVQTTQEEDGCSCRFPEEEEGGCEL
Chain of Human 4-1BB + Mouse 4-1BB domain1,4B,NF(aa24-46,aa139-186) (human; mouse) (chain, as listed by the source): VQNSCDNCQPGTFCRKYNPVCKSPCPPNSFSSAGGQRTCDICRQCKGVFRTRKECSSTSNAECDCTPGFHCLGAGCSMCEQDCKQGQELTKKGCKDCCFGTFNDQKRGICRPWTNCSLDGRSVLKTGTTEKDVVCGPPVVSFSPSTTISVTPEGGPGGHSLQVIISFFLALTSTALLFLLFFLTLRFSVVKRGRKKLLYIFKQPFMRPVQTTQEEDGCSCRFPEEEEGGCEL

B1: Hanke10F4 (antibody, human IgG4 S228P, kappa, V domains shown)
VH: QVQLQESGPGLVKPSETLSITCTVSGSSLTSYGVHWVRQPPGKGLEGLGVIWPGGSTNYNSALMSRLTISKDNSKSQVSLKMSSLTAADTAMYYCARVTGTWYFDVWGQGTTVTVSS
VL: DIQMTQSPSSLSASLGDRVTISCSASQGISNYLNWYQQKPDGTVKLLIYYTSTLHSGVPSRFSGSGSGTDFTLTISSLQPEDVATYYCQQYSKLPWTFGGGTKLEIKR
Consider B1, for which the Mean fluorescence intensity amounted to 948 in assay [1] and 1870 in assay [2].
